Results taken from patent publication US20230101046A1, “[…] LYMPHOMA KINASE […] ANTIGEN RECEPTORS AND METHODS OF USE” (The Children's Medical Center Corporation, published 2023).

B1: ALK Antibody #1 (antibody, V domains shown)
VH: QVQLQQSGAELVKPGASVKISCKASGYAFSSYWMNWVKQRPGKGLEWIGQIYPGDGDTNYNGKFKGKATLTADKSSSTAYMQLSSLTSEDSAVYFCASYYYGSKAYWGQGTLVTVSA
VL: DIQMTQSPASLAASVGETVTITCRASENIYYSLAWYQQKQGKSPQLLIYNANSLEDGVPSRFSGSGSGTQYSMKINSMQPEDTATYFCKQAYDVPFTFGSGTKLEIKR
B2: ALK Antibody #3 (antibody, V domains shown)
VH: QVQLQQSGAELAKPGASVKLSCKASGYTFTNYWMHWVKQRPGQGLEWIGYINPSSGYTKYNQKFKDKATLTADKSSSTAYMQLSSLTYEDSAVYYCARDYYGSSSWFAYWGQGTLVTVSA
VL: DIVMTQSQRFMSTSVGDRVSVTCKASQNVGTNVAWYQQKPGQSPKALIYSASYRYSGVPDRFTGSGSGTDFTLTVSNVQSEDLAEYFCQQYNSYPYMYTFGGGTKLEIKR
B3: ALK Antibody #4 (antibody, V domains shown)
VH: QVQLQQSGAELVKPGASVKISCKASGYAFSSYWVNWVKQRPGKGLEWIGQIYPGDGDTNYNGKFKGKATLTADKSSSTAYMQLSSLTSEDSAVYFCARSRGYFYGSTYDSWGQGTTLTVSS
VL: not shown
B4: ALK Antibody #5 (antibody, V domains shown)
VH: QVQLQQSGAELAKPGASVKLSCKASGYTFTSYWMHWVKQRPGQGLEWIGYIKPSSGYTKYNQKFKDKATLTADKSSSTAYMQLSSLTYEDSAVYYCARDYYGSSSWFAYWGQGTLVTVSA
VL: DIVMTQSQRFMSTSVGDRVSVTCKASQNVGTNVAWYQQKPGQSPKALIYSASYRYSGVPDRFTGSGSGTDFTLTISNVQSEDLAEYFCQQYNSYPYMYTFGGGTKLEIKR
B5: ALK Antibody #6 (antibody, V domains shown)
VH: DVKLVESGEGLVKPGGSLKLSCAASGFTFSSYAMSWVRQTPEKRLEWVTYISSGGDYIYYADTVKGRFTISRDNARNTLYLQMSSLKSEDTAMYYCTRERIWLRRFFDVWGTGTTVTVSS
VL: DIVMTQSQKFMSTSVGDRVSITCKASQNVGTAVAWYQLKPGQSPKLLIYSASNRFTGVPDRFTGSGSGTDFTLTISNMQSEDLADYFCQQYSSYPLTFGSGTKLEIKR
B6: ALK Antibody #7 (antibody, V domains shown)
VH: QVQLQQSGAELAKPGASVKLSCKASGYTFTSYWMHWVKQRPGQGLEWIGYINPSSGYTKYNQKFKDKATLTADKSSSTAYMQLSSLTFEDSAVYYCARDYYGSSSWFAYWGQGTLVTVSA
VL: DIVMTQSQKFMSTSVGDRVSVTCKASQNVGTNVAWYQQKPGHSPKALIYSASYRYSGVPDRFTGSGSGTDFTLTISNVQSEDLAEYFCQRYNSYPYMFTFGGGTKLEIKR

target: human ALK receptor (human); test: apparent KD (KD^app), method not stated
Sequence (chain, as listed by the source): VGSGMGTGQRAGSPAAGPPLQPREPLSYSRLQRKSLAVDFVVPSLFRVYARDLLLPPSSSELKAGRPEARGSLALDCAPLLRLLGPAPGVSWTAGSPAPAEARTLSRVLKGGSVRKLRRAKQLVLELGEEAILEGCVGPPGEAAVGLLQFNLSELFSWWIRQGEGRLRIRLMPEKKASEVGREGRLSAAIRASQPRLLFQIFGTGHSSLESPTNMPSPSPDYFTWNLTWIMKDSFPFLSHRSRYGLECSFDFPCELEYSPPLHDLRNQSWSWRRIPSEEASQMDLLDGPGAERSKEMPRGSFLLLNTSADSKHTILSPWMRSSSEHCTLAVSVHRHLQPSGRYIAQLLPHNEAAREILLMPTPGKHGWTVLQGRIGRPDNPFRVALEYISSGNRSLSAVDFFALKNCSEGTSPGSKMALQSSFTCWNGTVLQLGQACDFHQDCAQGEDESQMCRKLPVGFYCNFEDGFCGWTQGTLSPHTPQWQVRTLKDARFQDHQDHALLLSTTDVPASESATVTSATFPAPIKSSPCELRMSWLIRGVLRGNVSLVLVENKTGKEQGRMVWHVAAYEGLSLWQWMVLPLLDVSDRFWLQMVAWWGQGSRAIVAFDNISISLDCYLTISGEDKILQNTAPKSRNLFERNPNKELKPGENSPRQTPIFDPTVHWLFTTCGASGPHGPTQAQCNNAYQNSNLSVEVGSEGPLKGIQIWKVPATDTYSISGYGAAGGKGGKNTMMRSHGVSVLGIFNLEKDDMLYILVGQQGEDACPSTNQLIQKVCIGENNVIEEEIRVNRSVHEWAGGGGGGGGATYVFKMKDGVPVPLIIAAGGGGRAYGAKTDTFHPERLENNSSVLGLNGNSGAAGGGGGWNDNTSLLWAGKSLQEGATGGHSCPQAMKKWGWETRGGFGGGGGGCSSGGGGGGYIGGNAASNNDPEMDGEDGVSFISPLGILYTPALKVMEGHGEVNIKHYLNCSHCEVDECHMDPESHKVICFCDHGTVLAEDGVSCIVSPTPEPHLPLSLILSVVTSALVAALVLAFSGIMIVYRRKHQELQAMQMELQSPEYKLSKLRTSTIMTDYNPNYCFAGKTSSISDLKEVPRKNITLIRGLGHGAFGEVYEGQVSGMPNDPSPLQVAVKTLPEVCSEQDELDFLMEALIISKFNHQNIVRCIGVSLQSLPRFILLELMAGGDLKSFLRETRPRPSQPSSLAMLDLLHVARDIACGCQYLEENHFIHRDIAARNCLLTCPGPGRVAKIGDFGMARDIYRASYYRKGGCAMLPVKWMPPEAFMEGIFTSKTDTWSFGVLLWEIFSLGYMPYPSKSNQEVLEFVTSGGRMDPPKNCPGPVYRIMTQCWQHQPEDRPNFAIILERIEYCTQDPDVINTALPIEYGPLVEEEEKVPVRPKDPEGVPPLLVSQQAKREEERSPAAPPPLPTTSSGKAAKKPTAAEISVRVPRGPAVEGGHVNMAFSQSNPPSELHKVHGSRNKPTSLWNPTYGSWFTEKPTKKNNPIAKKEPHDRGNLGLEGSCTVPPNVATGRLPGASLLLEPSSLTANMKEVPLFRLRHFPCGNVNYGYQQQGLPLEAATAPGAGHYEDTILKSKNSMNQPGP

Row | Binder | Kd [nM]
1 | B1 | 0.35
2 | B2 | 0.5
3 | B3 | 0.5
4 | B4 | 0.5
5 | B5 | 0.4
6 | B6 | 0.5
